Two molecules from article doi:10.1101/2025.09.26.678928 can be followed below.

This test deals with UhGpe1 (U. hordei).

As for “SrPit2 peptide corresponding to the U. maydis activating motif”, the reporter activity in S. cerevisiae biosensor assays, percent activity is 45%.

With WWFGFTGSL [Pit2 core peptide (…)], the reporter activity in S. cerevisiae biosensor assays, percent activity worked out at 30%.
